Results published in US20140294844A1 (published 2014).

B1: huPrP23-231 (receptor)
chain: not shown

Columns and labels:
[1] = target: A[beta]-derived diffusible ligands (ADDL) prepared from A[beta]1-42 (UniProt P05067 672-713)
[2] = target: bADDL preparation from biotinylated A[beta]1-42 (bA[beta]1-42) (UniProt P05067 672-713)
huPrP23-231 = target: B1

Binder | Kd [1] [nM] | Kd [2] [nM] | fold tighter binding than huPrP91-231 [2] [fold] | Kd (huPrP23-231) [nM] | Ki (huPrP23-231) [nM]
B1 | 100 | 82 | 100 |  | 
ICSM-18 (antibody, V domains shown) VH: EVQLQQSGPELVKPGSSVKISCKASRNTFTDYNLDWVKQSHGKTLEWIGNVYPNNGVTGYNQKFRGKATLTVDKSSSTAYMELHSLTSEDSAVYYCALYYYDVSYWGQGTLVTVSA VL: QIVLTQSPAIMSASPGEKVTMTCSASSSVSYMHWYQQKSGTSPKRWIYDTSKLASGVPARFSGSGSGTSYSLTISSMEAEDAATYFCHQWRSNPYTFGGGTKLEIKR |  |  |  | ~10 | ~20
